Laboratory results published in paper PMC4938799, “LD Motif Recognition by Talin: Structure of the Talin-DLC1 Complex” (Structure(London, England:1993), 2016).
Entries after “also recorded” stand apart in the source; their conditions may differ.

Key:
Type in all cases: cell-based
GFP-DLC1 = assay: GST pull-down of GFP-DLC1 in HEK 293T cells; details: HEK 293T cells co-transfected with GFP-DLC1 and GST-tagged talin constructs, immunoblot
Experimental: We reported previously that wild-type talin R8 is sufficient to form a complex with full-length DLC1 in cells ([Li et al., 2011]). To evaluate the effects of the single K1530E and K1544E and double K1530E/K1544E (2E) R8 mutants on the complex formation in vivo, we engineered GST-tagged R8 constructs into isogenic mammalian expression plasmids and co-transfected them with GFP-DLC1 into HEK 293T cells. Complex formation was determined by a GST pull-down assay.
The plasmids expressing GFP-DLC1 and GST fusion proteins with talin rod fragments encoding talin amino acids 1,288–1,646 and 1,453–1,580 (R8) were described previously ([Li et al., 2011]). The plasmid encoding 1,352–1,580 (R7R8) was engineered by PCR and subcloned into a eukaryotic expression vector, PEBG. HEK293T cells were transfected by Lipofectamine 2000, and DLC1-null lung adenocarcinoma cell lines A549 and H358 cells were transfected by Lipofectamine 3000 according to the manufacturer’s instructions (Invitrogen). Cells were co-transfected with plasmids expressing GFP-DLC1 or Paxillin-DDK and GST, GST-talin fragments, or vector at a ratio of 1:2.5. Cells were incubated at 37°C in a humidified 5% CO2 atmosphere. In vivo pull-down assay, co-immunoprecipitation, immunoblotting, G418 colony growth, soft agar growth, and cell migration assays were described previously ([Qian et al., 2009]). All experiments were conducted in triplicate.
Figure S2, related to Figures 4 and 5. […]
R8 talin fragment were co-transfected with GFP-DLC1 into 293T cells. Cell extracts were subjected
(1 picture or pasted object on this page, not shown here) […]
to pull-down assay with glutathione beads followed by immunoblotting with anti-GST and anti-DLC1 on the same membrane (top). The transfected GFP-DLC1 in each sample is shown by the anti-DLC1 blot (bottom) as a loading control. […]
HEK 293T cells were transfected by lipofectamine 2000 and DLC1-null lung adenocarcinoma cell lines A549 and H358 cells were transfected by lipofectamine 3000 according to manufacturer instructions (Invitrogen). Cells were co-transfected with plasmids expressing GFP-DLC1 or Paxillin-DDK and GST, GST-talin fragments, or vector at a ratio of 1:2.5. Cells were incubated at 37 °C in a humidified 5% CO2 atmosphere.
In vivo pull-down assay, co-immunoprecipitation, and immunoblotting - As described previously (Qian et al., 2009), two days after transfection, cell extracts were collected using golden lysis buffer (GLB: 20 mM Tris pH 7.9, 137 mM NaCl, 10% glycerol, 1% Triton, 5 mM EDTA, 1 mM EGTA, 1 mM Na3VO4, 10 mM NaF, 1 mM sodium pyrophosphate, 0.5 mM β-glycerophosphate, and protease inhibitor cocktail tablet (Roche)). The cleared supernatants were collected, and the amount of protein estimated by BCA kit (Pierce). […]

[1] = system: A549 human non-small cell lung cancer line; assay: Growth in soft agar; details: transfected A549, 3 weeks; mean over three experiments
Description: (§1) Figure 6 Talin R8 Mutations Disrupt the Interaction with DLC1 and Affect Its Biological Activity (A) Wild-type GST-talin fragments pull down more DLC1 than the 2E mutants. Extracts of HEK293T cells transfected with GFP-DLC1 and GST-talin constructs were subjected to pull-down assays with glutathione beads followed by immunoblotting with anti-GST and anti-DLC1 on the same membrane (top). The transfected GFP-DLC1 in each sample is shown by the anti-DLC1 blot (bottom) as a loading control. (B) Wild-type GST-talin fragments compete efficiently with endogenous talin to form a complex with DLC1. The supernatants collected after pull-down assay from (A) were reused for co-immunoprecipitation with an anti-talin antibody and blotted with anti-DLC1 (top). A small aliquot from each lane was blotted for endogenous talin as a loading control (bottom). (C) Co-expression of GST or GST-talin fragments (wild-type or 2E mutant) with GFP DLC1 in A549 cells. […] Transfected A549 cells were cultured in G418 for 3 weeks, and colonies counted and quantitated (top). […] Transfected A549 cells were grown for 3 weeks in soft agar, and colonies counted and quantitated (top). […] Lysates from migrated cells were quantitated (top), and representative microscopic images of the migrated cells are shown (bottom). […]

[2] = system: A549 human non-small cell lung cancer line; assay: Transwell cell migration assay; details: transfected A549, transwell, 24 h; mean over three experiments
Description: as §1

[3] = system: A549 human non-small cell lung cancer line; assay: G418 (monolayer) colony growth assay; details: transfected A549, G418 for 3 weeks; mean over three experiments
Description: as §1

| Molecule | DLC1 binding in GST pull-down (GFP-DLC1) | DLC1 binding in GST pull-down (GFP-DLC1; listed as GST-talin R1530E) | growth in soft agar [1] | cell migration [2] | colony growth [3] | DLC1 binding in GST pull-down (GFP-DLC1; listed as talin R8 K1530E/K1544E double mutant) |
| --- | --- | --- | --- | --- | --- | --- |
| talin R8 K1530E: GST-tagged talin R8 single mutant K1530E (protein, left off: GST, end not stated, kept) NSQAGQQGLVEPTQFARANQAIQMACQSLGEPGCTQAQVLSAATIVAKHTSALCNSCRLASARTANPTAKRQFVQSAEEVANSTANLVKTIKALDGDFTEENRAQCRAATAPLLEAVDNLSAFASNPE | greater reduction in DLC1 binding than K1544E | binds DLC1 less well than the K1544E mutant |  |  |  |  |
| GFP-DLC1: GFP fusion of full-length DLC1 expressed from plasmid (protein, left off: GFP, end not stated, kept, GFP fusion of full-length DLC1 expressed from plasmid) MCRKKPDTMILTQIEAKEACDWLRATGFPQYAQLYEDFLFPIDISLVKREHDFLDRDAIEALCRRLNTLNKCAVMKLEISPHRKRSDDSDEDEPCAISGKWTFQRDSKRWSRLEEFDVFSPKQDLVPGSPDDSHPKDGPSPGGTLMDLSERQEVSSVRSLSSTGSLPSHAPPSEDAATPRTNSVISVCSSSNLAGNDDSFGSLPSPKELSSFSFSMKGHEKTAKSKTRSLLKRMESLKLKSSHHSKHKAPSKLGLIISGPILQEGMDEEKLKQLNCVEISALNGNRINVPMVRKRSVSNSTQTSSSSSQSETSSAVSTPSPVTRTRSLSACNKRVGMYLEGFDPFNQSTFNNVVEQNFKNRESYPEDTVFYIPEDHKPGTFPKALTNGSFSPSGNNGSVNWRTGSFHGPGHISLRRENSSDSPKELKRRNSSSSMSSRLSIYDNVPGSILYSSSGDLADLENEDIFPELDDILYHVKGMQRIVNQWSEKFSDEGDSDSALDSVSPCPSSPKQIHLDVDNDRTTPSDLDSTGNSLNEPEEPSEIPERRDSGVGASLTRSNRHRLRWHSFQSSHRPSLNSVSLQINCQSVAQMNLLQKYSLLKLTALLEKYTPSNKHGFSWAVPKFMKRIKVPDYKDRSVFGVPLTVNVQRTGQPLPQSIQQAMRYLRNHCLDQVGLFRKSGVKSRIQALRQMNEGAIDCVNYEGQSAYDVADMLKQYFRDLPEPLMTNKLSETFLQIYQYVPKDQRLQAIKAAIMLLPDENREVLQTLLYFLSDVTAAVKENQMTPTNLAVCLAPSLFHLNTLKRENSSPRVMQRKQSLGKPDQKDLNENLAATQGLAHMIAECKKLFQVPEEMSRCRNSYTEQELKPLTLEALGHLGNDDSADYQHFLQDCVDGLFKEVKEKFKGWVSYSTSEQAELSYKKVSEGPPLRLWRSVIEVPAVPEEILKRLLKEQHLWDVDLLDSKVIEILDSQTEIYQYVQNSMAPHPARDYVVLRTWRTNLPKGACALLLTSVDHDRAPVVGVRVNVLLSRYLIEPCGPGKSKLTYMCRVDLRGHMPEWYTKSFGHLCAAEVVKIRDSFSNQNTETKDTKSR |  |  | inhibitory in all three assays | suppressed cell migration; also recorded: inhibitory in all three assays | suppressed colony formation; also recorded: inhibitory in all three assays |  |
| 2E double mutant: GST-tagged talin R8 K1530E/K1544E double mutant (protein, left off: GST, end not stated, kept) NSQAGQQGLVEPTQFARANQAIQMACQSLGEPGCTQAQVLSAATIVAKHTSALCNSCRLASARTANPTAKRQFVQSAEEVANSTANLVKTIEALDGDFTEENRAQCRAATAPLLEAVDNLSAFASNPE | reduced binding to a greater extent than either single mutant |  |  |  |  | markedly reduced binding |
